Measured values from the supplement of paper PMC10567573.

B1: ADD1 (parent)
chain: FASDGDSGTCSPLRHSFQKQQREK

Variants of: B1
Experiment: protein stability index of a GFP-peptide fusion (GPS, HEK-293T) (PSI 1-6); higher = more stable
Settings: c terminus: a fixed tail appended
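Also: lentivirally expressed fusions sorted by FACS into six bins by GFP to DsRed ratio, PSI derived from sequencing read proportions per bin multiplied by bin number.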

Protein stability index: each site, then its substitutions
S11: D 4.04, K 4.45, R 4.39, Y 3.92, W 2.17, Q 4.25, V 4.58, G 4.35, C 3.16, M 3.75, I 3.79, F 3.17, N 1.87, H 2.62, A 3.9, L 3.94, P 4.62, T 4.53, E 4.5
G8: L 3.2, A 2.82, F 1.44, P 4.47, H 3.86, D 4.29, E 3.92, T 3.75, Q 3.7, V 3.81, I 3.15, N 3.5, Y 2.5, S 3.58, C 3.1, K 3.57, M 2.96, R 3.98
H15: P 4.01, R 3.45, D 5.02, Y 3.44, I 3.5, S 4.22, T 4.16, N 4.41, M 2.88, K 4.1, G 3.29, C 2.62, V 2.93, L 3.21, F 3.01, Q 3.44, E 4.34, A 3.83, W 2.39
P12: D 4.34, Y 3.86, N 4.95, T 4.59, S 3.67, C 2.73, E 3.93, V 3.89, K 3.3, Q 4.79, H 3.91, I 3.37, R 4.6, A 4.76, G 4.73, F 3.02, M 4.39, L 3.88
T9: L 3.58, F 1.64, M 2.4, S 3.82, C 3.52, I 2.49, A 4.16, H 3.45, W 3.71, N 4.13, E 4.79, V 3.31, R 3.33, Q 4.04, D 4.36, P 4.35, Y 2.16
S7: I 1.49, H 3.42, P 3.85, K 3.69, N 4.14, L 2.11, T 3.19, V 1.49, Y 3.04, W 2.06, Q 3.76, R 4.01, M 3.14, G 3.46
L13: G 4.22, F 2.39, Q 4.95, C 4.25, E 4.89, H 5.09, D 4.72, M 4.02, A 4.98, Y 2.13, V 5, I 3.97, N 4.26, S 4.55, R 5.28, T 4.98, P 4.1, K 4.57
R14: H 3.98, P 5.13, S 4.45, A 4.18, Q 3.6, T 4.8, V 3.97, I 4.52, E 4.64, L 3.66, D 4.75, C 3.52, G 4.11, Y 1.94, W 4.02, M 4.27, K 4.55, N 4.46
C10: R 4.07, L 3.85, S 4.78, M 3.75, A 4.67, H 4.01, Q 4.13, T 4.44, D 4.68, N 5.17, Y 1.63, I 4.24, V 3.85, F 1.87, E 4.66, G 4.49, P 3.65, K 4.17
S16: C 2.24, F 2.84, G 3.54, H 4.27, I 1.99, D 4.82, A 3.52, K 4.59
